From FireProtDB (doi:10.1021/bi00010a017)

Settings: Saccharomyces cerevisiae (strain ATCC 204508 / S288c), pH 4.6, Thermal, CD, Unknown, reversible: yes

Cytochrome c isoform 1 L100V, P00044, sequence (P00044 whole entry L100V, canonical isoform): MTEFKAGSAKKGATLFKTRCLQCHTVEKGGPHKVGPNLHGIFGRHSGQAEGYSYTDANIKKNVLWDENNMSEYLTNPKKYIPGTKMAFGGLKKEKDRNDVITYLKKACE
Cytochrome c isoform 1 F16I, P00044, sequence (P00044 whole entry F16I, canonical isoform): as the sequence (P00044 whole entry L100V, canonical isoform) above, with F16I, V100L counted along it
Cytochrome c isoform 1 wild type, P00044, sequence (P00044 whole entry, canonical isoform): as the sequence (P00044 whole entry L100V, canonical isoform) above, with V100L counted along it
Cytochrome c isoform 1 Y103A, P00044, sequence (P00044 whole entry Y103A, canonical isoform): as the sequence (P00044 whole entry L100V, canonical isoform) above, with V100L, Y103A counted along it
Cytochrome c isoform 1 F16W, P00044, sequence (P00044 whole entry F16W, canonical isoform): as the sequence (P00044 whole entry L100V, canonical isoform) above, with F16W, V100L counted along it
Cytochrome c isoform 1 F16Y, P00044, sequence (P00044 whole entry F16Y, canonical isoform): as the sequence (P00044 whole entry L100V, canonical isoform) above, with F16Y, V100L counted along it
Cytochrome c isoform 1 L100I, P00044, sequence (P00044 whole entry L100I, canonical isoform): as the sequence (P00044 whole entry L100V, canonical isoform) above, with V100I counted along it
Cytochrome c isoform 1 L100T, P00044, sequence (P00044 whole entry L100T, canonical isoform): as the sequence (P00044 whole entry L100V, canonical isoform) above, with V100T counted along it
Cytochrome c isoform 1 L100A, P00044, sequence (P00044 whole entry L100A, canonical isoform): as the sequence (P00044 whole entry L100V, canonical isoform) above, with V100A counted along it
Cytochrome c isoform 1 L100I|Y103F, P00044 L100I Y103F, sequence (P00044 whole entry L100I/Y103F, canonical isoform): as the sequence (P00044 whole entry L100V, canonical isoform) above, with V100I, Y103F counted along it
Cytochrome c isoform 1 L100A|Y103F, P00044 L100A Y103F, sequence (P00044 whole entry L100A/Y103F, canonical isoform): as the sequence (P00044 whole entry L100V, canonical isoform) above, with V100A, Y103F counted along it
Cytochrome c isoform 1 Y103F, P00044, sequence (P00044 whole entry Y103F, canonical isoform): as the sequence (P00044 whole entry L100V, canonical isoform) above, with V100L, Y103F counted along it

Cytochrome c isoform 1 F16I, P00044
Tm (structure 1YCC): 48.5 °C
change of melting temperature, mutant - wild type (higher = more stable) (structure 1YCC): -4.3 °C
heat capacity change of unfolding (structure 1YCC): 1.57 kcal/mol/K
unfolding enthalpy (van 't Hoff) (structure 1YCC): 79.9 kcal/mol

Cytochrome c isoform 1 F16W, P00044
Tm (structure 1YCC): 47.6 °C
change of melting temperature, mutant - wild type (higher = more stable) (structure 1YCC): -5.2 °C
heat capacity change of unfolding (structure 1YCC): 1.6 kcal/mol/K
unfolding enthalpy (van 't Hoff) (structure 1YCC): 75.6 kcal/mol

Cytochrome c isoform 1 F16Y, P00044
Tm (structure 1YCC): 50.9 °C
change of melting temperature, mutant - wild type (higher = more stable) (structure 1YCC): -1.9 °C
heat capacity change of unfolding (structure 1YCC): 1.26 kcal/mol/K
unfolding enthalpy (van 't Hoff) (structure 1YCC): 75.5 kcal/mol

Cytochrome c isoform 1 L100A, P00044
Tm (structure 1YCC): 36.6 °C
change of melting temperature, mutant - wild type (higher = more stable) (structure 1YCC): -16.2 °C
heat capacity change of unfolding (structure 1YCC): 1.94 kcal/mol/K
unfolding enthalpy (van 't Hoff) (structure 1YCC): 52.6 kcal/mol

Cytochrome c isoform 1 L100A|Y103F, P00044 L100A Y103F
Tm (structure 1YCC): 33.4 °C
change of melting temperature, mutant - wild type (higher = more stable) (structure 1YCC): -19.4 °C
heat capacity change of unfolding (structure 1YCC): 1.78 kcal/mol/K
unfolding enthalpy (van 't Hoff) (structure 1YCC): 53.7 kcal/mol

Cytochrome c isoform 1 L100I, P00044
heat capacity change of unfolding (52.8 °C, structure 1YCC): 1.81 kcal/mol/K
unfolding free energy (52.8 °C, structure 1YCC): 0.33 kcal/mol
Tm (structure 1YCC): 54.1 °C
change of melting temperature, mutant - wild type (higher = more stable) (structure 1YCC): 1.3 °C
heat capacity change of unfolding (structure 1YCC): 1.81 kcal/mol/K
unfolding enthalpy (van 't Hoff) (structure 1YCC): 87.2 kcal/mol

Cytochrome c isoform 1 L100I|Y103F, P00044 L100I Y103F
Tm (structure 1YCC): 49.9 °C
change of melting temperature, mutant - wild type (higher = more stable) (structure 1YCC): -2.9 °C
heat capacity change of unfolding (structure 1YCC): 1.76 kcal/mol/K
unfolding enthalpy (van 't Hoff) (structure 1YCC): 79.9 kcal/mol

Cytochrome c isoform 1 L100T, P00044
Tm (structure 1YCC): 38.9 °C
change of melting temperature, mutant - wild type (higher = more stable) (structure 1YCC): -13.9 °C
heat capacity change of unfolding (structure 1YCC): 1.49 kcal/mol/K
unfolding enthalpy (van 't Hoff) (structure 1YCC): 57.8 kcal/mol

Cytochrome c isoform 1 L100V, P00044
Tm (structure 1YCC): 48.8 °C
change of melting temperature, mutant - wild type (higher = more stable) (structure 1YCC): -4 °C
heat capacity change of unfolding (structure 1YCC): 1.54 kcal/mol/K
unfolding enthalpy (van 't Hoff) (structure 1YCC): 81.6 kcal/mol

Cytochrome c isoform 1 Y103A, P00044
Tm (structure 1YCC): 31.1 °C
change of melting temperature, mutant - wild type (higher = more stable) (structure 1YCC): -21.7 °C
heat capacity change of unfolding (structure 1YCC): 1.77 kcal/mol/K
unfolding enthalpy (van 't Hoff) (structure 1YCC): 49.2 kcal/mol

Cytochrome c isoform 1 Y103F, P00044
heat capacity change of unfolding (52.8 °C, structure 1YCC): 1.53 kcal/mol/K
unfolding free energy (52.8 °C, structure 1YCC): 0.24 kcal/mol
Tm (structure 1YCC): 53.8 °C
change of melting temperature, mutant - wild type (higher = more stable) (structure 1YCC): 1 °C
heat capacity change of unfolding (structure 1YCC): 1.53 kcal/mol/K
unfolding enthalpy (van 't Hoff) (structure 1YCC): 84.5 kcal/mol

Cytochrome c isoform 1 wild type, P00044
heat capacity change of unfolding (52.8 °C): 1.37 kcal/mol/K
unfolding free energy (52.8 °C): 0 kcal/mol
Tm: 52.8 °C
heat capacity change of unfolding: 1.37 kcal/mol/K
unfolding enthalpy (van 't Hoff): 82.5 kcal/mol
